From FireProtDB (doi:10.1021/bi00179a018)

Details: Bacillus amyloliquefaciens, Thermal, DSC, Potassium acetate 50 mM, reversible: yes, whole UniProt chain shown; for unfolding free energy: 25 °C

B1: Ribonuclease wild type, P00648 (protein)
chain: MMKMEGIALKKRLSWISVCLLVLVSAAGMLFSTAAKTETSSHKAHTEAQVINTFDGVADYLQTYHKLPDNYITKSEAQALGWVASKGNLADVAPGKSIGGDIFSNREGKLPGKSGRTWREADINYTSGFRNSDRILYSSDWLIYKTTDHYQTFTKIR
With B1 the Tm (pH 2) was 24 °C, the “unfolding enthalpy (calorimetric)” value (pH 2) was 82.5 kcal/mol and the Tm (pH 2.5) was 31.6 °C. The “unfolding enthalpy (calorimetric)” value (pH 2.5) was 94.3 kcal/mol, the unfolding free energy (pH 3) was 4.4 kcal/mol and the unfolding free energy (pH 3.5) was 6.79 kcal/mol. For the same protein, the Tm (pH 3.5) was 46.7 °C, the “unfolding enthalpy (calorimetric)” value (pH 3.5) was 119 kcal/mol and the unfolding free energy (pH 4) was 8.13 kcal/mol. For the same protein, the Tm (pH 4) was 50.5 °C, the “unfolding enthalpy (calorimetric)” value (pH 4) was 125 kcal/mol and the unfolding free energy (pH 4.5) was 9.02 kcal/mol. The Tm (pH 4.5) was 53 °C, the “unfolding enthalpy (calorimetric)” value (pH 4.5) was 129 kcal/mol and the unfolding free energy (pH 5) was 9.35 kcal/mol. For the same protein, the Tm (pH 5) was 53.9 °C and the “unfolding enthalpy (calorimetric)” value (pH 5) was 131 kcal/mol.
